The results in this text go back to patent US20120046222A1.

For the assay, the target named is GLP-1 receptor (UniProt P32301). As to the kind of experiment: cell-based or functional assay.

With “dAla^2,Pro^3,Leu^14,Phe^25-exendin-4 (1-28) amide (from UniProt P26349) (peptide)”, the Cyclase GLP-1 Receptor EC50 is 0.029 nM.
“dAla^2,Pro^3-exendin-4 amide (from UniProt P26349 48-86) (peptide)” returned a Cyclase GLP-1 Receptor EC50 of 0.004 nM.
